According to paper PMC9497888:

Each substance was assayed against fibrin (human) (UniProt P02671).
UniProt P02671, sequence (P02671 36-866, chain 1 of 3): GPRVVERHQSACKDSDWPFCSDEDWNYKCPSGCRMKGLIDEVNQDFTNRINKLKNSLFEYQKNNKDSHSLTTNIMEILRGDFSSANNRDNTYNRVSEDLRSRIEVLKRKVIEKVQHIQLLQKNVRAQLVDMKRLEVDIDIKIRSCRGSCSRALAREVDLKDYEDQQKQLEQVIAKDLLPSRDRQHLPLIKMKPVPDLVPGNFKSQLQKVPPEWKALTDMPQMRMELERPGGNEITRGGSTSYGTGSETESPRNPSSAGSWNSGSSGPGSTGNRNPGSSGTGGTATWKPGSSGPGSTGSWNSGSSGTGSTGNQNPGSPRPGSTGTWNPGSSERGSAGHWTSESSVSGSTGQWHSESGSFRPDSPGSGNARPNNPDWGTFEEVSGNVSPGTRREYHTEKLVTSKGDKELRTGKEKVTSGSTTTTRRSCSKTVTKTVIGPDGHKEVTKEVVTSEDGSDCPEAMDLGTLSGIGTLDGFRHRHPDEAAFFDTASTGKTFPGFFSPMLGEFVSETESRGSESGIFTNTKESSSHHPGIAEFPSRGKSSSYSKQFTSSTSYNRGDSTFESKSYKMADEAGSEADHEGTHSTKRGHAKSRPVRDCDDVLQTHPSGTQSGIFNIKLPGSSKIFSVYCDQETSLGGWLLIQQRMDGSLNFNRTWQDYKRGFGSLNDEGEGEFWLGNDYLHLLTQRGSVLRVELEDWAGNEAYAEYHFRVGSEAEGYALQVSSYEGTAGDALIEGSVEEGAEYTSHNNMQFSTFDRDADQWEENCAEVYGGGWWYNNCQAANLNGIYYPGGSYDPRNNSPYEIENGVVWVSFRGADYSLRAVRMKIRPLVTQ
UniProt P02671, sequence (P02675 45-491, chain 2 of 3, further chain): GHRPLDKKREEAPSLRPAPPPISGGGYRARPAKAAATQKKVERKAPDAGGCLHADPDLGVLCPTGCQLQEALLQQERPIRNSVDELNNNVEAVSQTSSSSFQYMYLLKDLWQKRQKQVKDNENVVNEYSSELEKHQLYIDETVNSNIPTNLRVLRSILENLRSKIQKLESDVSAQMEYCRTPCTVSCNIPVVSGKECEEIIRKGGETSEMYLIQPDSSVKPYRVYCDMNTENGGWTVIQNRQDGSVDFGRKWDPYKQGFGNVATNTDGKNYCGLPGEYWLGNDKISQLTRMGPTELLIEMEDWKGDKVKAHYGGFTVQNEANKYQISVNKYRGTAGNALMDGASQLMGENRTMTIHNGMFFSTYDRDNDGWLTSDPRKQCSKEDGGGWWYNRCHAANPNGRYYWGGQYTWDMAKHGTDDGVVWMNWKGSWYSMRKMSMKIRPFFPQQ
UniProt P02671, sequence (P02679 27-453, chain 3 of 3, further chain): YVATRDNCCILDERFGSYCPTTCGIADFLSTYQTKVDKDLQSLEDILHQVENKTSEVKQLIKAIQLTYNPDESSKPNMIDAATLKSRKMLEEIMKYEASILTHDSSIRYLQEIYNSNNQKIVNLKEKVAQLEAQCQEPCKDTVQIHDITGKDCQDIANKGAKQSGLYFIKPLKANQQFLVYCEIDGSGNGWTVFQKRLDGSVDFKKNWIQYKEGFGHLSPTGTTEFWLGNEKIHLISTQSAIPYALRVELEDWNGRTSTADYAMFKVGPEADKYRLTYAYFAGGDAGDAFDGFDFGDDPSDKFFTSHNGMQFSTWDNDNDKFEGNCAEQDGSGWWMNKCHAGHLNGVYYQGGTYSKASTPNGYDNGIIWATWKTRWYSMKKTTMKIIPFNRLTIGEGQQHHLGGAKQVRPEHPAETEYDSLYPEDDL

Q: Which stimulation factor of S-2765 hydrolysis: Kcat/Km with fibrin cofactor (100 μg/mL) over Kcat/Km without cofactor does the source give for “QNGlyα2-1 (DSPAα2 N185Q) (from UniProt P15638 37-477) (enzyme)” here?
A: Its stimulation factor of S-2765 hydrolysis: Kcat/Km with fibrin cofactor (100 μg/mL) over Kcat/Km without cofactor is 2 fold.

Q: “ANGlyα2+1 (DSPAα2 N155S, added N-glycosylation site N153) (from UniProt P15638 37-477) (enzyme)” was tested. Which stimulation factor of S-2765 hydrolysis: Kcat/Km with fibrin cofactor (100 μg/mL) over Kcat/Km without cofactor did it give?
A: Its stimulation factor of S-2765 hydrolysis: Kcat/Km with fibrin cofactor (100 μg/mL) over Kcat/Km without cofactor is 3.1 fold.

Q: “QNGlyα2-2 (DSPAα2 N398Q) (from UniProt P15638 37-477) (enzyme)” was tested. Which stimulation factor of S-2765 hydrolysis: Kcat/Km with fibrin cofactor (100 μg/mL) over Kcat/Km without cofactor did it give?
A: The stimulation factor of S-2765 hydrolysis: Kcat/Km with fibrin cofactor (100 μg/mL) over Kcat/Km without cofactor was 7.4 fold.

Q: “recombinant DSPAα2 (bat plasminogen activator α2), wild type (from UniProt P15638 37-477) (enzyme)” was tested. Which stimulation factor of S-2765 hydrolysis: Kcat/Km with fibrin cofactor (100 μg/mL) over Kcat/Km without cofactor did it give?
A: Its stimulation factor of S-2765 hydrolysis: Kcat/Km with fibrin cofactor (100 μg/mL) over Kcat/Km without cofactor is 11.3 fold.

Q: Which stimulation factor of S-2765 hydrolysis: Kcat/Km with fibrin cofactor (100 μg/mL) over Kcat/Km without cofactor does the source give for “QNGlyα2 (DSPAα2 N185Q-N398Q) (from UniProt P15638 37-477) (enzyme)” here?
A: Its stimulation factor of S-2765 hydrolysis: Kcat/Km with fibrin cofactor (100 μg/mL) over Kcat/Km without cofactor is 1.7 fold.
